B1: Moritella marina phosphopantetheinyl transferase, short form (Mm-ppt short) (protein)
chain: MYSGVKDKLTLTTNEIHLWSVTPQTIQQPELLQAYSQLLSPAETIKQQRFRFEKDRHNALITRAFVRDLLSHYADVLPADWQFVKGEKDKPEIANPPLPLRFNISHTDNLIICAVMLNDDIGCDVENTLRSSNVLSIAKHSFSDSEFNDLLTQPTAQQTSRFFDYWTLKESYIKAWGLGLSIPLKDFSFTLPEGFQQQYQQEDQQENQHCIDTIKLSFAPHRIDNPNIWRHWLFYPNNTHRVALAVRARSNNQQTEYKMRFFNSTPLINITETLIFKPETNFKPDAK
B2: Moritella marina phosphopantetheinyl transferase, long form (Mm-ppt long) (protein)
chain: LVQLKTYDETRLRSDGVNYLGGNLSYYQACNGKRIILVSILIMYSGVKDKLTLTTNEIHLWSVTPQTIQQPELLQAYSQLLSPAETIKQQRFRFEKDRHNALITRAFVRDLLSHYADVLPADWQFVKGEKDKPEIANPPLPLRFNISHTDNLIICAVMLNDDIGCDVENTLRSSNVLSIAKHSFSDSEFNDLLTQPTAQQTSRFFDYWTLKESYIKAWGLGLSIPLKDFSFTLPEGFQQQYQQEDQQENQHCIDTIKLSFAPHRIDNPNIWRHWLFYPNNTHRVALAVRARSNNQQTEYKMRFFNSTPLINITETLIFKPETNFKPDAK
B3: Shewanella oneidensis MR-1 phosphopantetheinyl transferase (So-ppt) (protein)
chain: MKIELFFIPLAEMDAEMVSRCMALLSEDERAKVARYLAPKAQMNGLLVRAALRCVLSQGLQSPNESSLNAFSSNTGSLPIAPQDWCFEYGAKGKPSLCHEQFLKTGIEFNLSHSGDWLLIALAQGRAHTKFIDQSAKTRLGLGVDIERARASTNIYPILNHYFSARETEALLALPGETAHRQRFFDLWALKESYIKATGLGLAQSLKSFAFELMPDALVEVHPNQVALRHEWVELKRREPFALPSQLKLYCEIKPTAAFLPDSAHPPPENLHVQSYFGRLDEEYRFGLSLIHPNALSNVQISMTLASIKSLLAASLAD
B4: Colwellia psychrerythraea phosphopantetheinyl transferase (Cp-ppt) (protein)
chain: MTSFSQSELSTRTKEKLDLAANEIHIWVTKPEELLGNDELLATYSTLLTSTETAKQQRYKFAKDRHDALITRAFIRDLLSYYADVAPQDWQFEKGNKDKPEVINCPLPLRFNISHTKNLIICAVTLEDDIGCDVENTGRNNNVLAIAERYFSSKEIDELFALPEAQQRNRFFDYWTLKESYIKAWGLGLAIPLADFSFKINDTEHNHNGLFTIKQDINLSFAEHRVDEPQIWRSWLVYPTAAIDEKQEHRIAVSLRATSDNQKTDYQLRFFNTLPLLGYQEI

The series deals with Moritella marina polyketide synthase (PKS), four polypeptides Orf5, Orf6, Orf7 and Orf8.
In the case of B1, the “DHA Produced (gas chromatography of fatty acid methyl esters from E. coli co-expressing the Ppt and the PKS)” value (from here on “DHA Produced”) is “Yes”.

As to B2, the “DHA Produced” value is listed as “Yes”.

Consider B3, for which the “DHA Produced” value is “Yes”.

In the case of B4, the “DHA Produced” value was “Yes”.
